{"source": "paper PMC3798605", "about": "(2013)", "key": {"TbPIP39 wild type [1]": {"molecular_target": "T1, TbPIP39 wild type (Trypanosoma brucei)", "assay": "SPR; 2 mM citrate, steady state"}, "TbPIP39 wild type [2]": {"molecular_target": "T1, TbPIP39 wild type", "assay": "SPR; 2 mM citrate"}}}
{"binder": "TbPTP1 (enzyme) MSTAKSFPMAQLSTRAQYSRMQREFVQLQRQENPRNINFTTSLKNRHKNRYLDILANEETIYPPVLKAVGAQPGRYPYINGNLIDLDLPHTFVACQAPVPQGVPDFLETLSEKKVDLVVMLTKLREGGVLKAERYWPEEEEDSLSFPESGHDAIKVTRDAEASYEVDAELDIVRRPLVIHVPGKPMHRVLQVQYVGWPDHGVPESAASFDELLSVIKNCVTTSPILVHCSAGIGRTGTLIGAYAALLHIERGILTDSTVYSIVAAMKQKRFGMVQRLEQYAVIYMTVLGRLGVDISGLVSTLNLKA", "values": [{"measurement": "Kd", "setting": "TbPIP39 wild type [1]", "result": 50.8, "unit": "µM"}, {"measurement": "Kd", "setting": "TbPIP39 wild type [2]", "result": 42, "unit": "µM"}, {"measurement": "koff", "setting": "TbPIP39 wild type [2]", "result": 0.05, "unit": "s⁻¹"}]}
